Laboratory results taken from PMC2847530 (Molecular Biology of the Cell, 2010).

Biological target: T1, recombinant hexahistidine-tagged ScSec4 (S. cerevisiae, UniProt P07560 1-215)
T1 sequence: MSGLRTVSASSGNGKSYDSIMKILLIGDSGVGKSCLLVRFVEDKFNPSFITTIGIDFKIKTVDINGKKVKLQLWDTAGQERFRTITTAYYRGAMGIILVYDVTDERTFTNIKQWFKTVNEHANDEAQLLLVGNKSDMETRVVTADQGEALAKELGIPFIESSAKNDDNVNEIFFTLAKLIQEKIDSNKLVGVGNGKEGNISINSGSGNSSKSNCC
Assay: […]) in EDTA binding buffer

B1: GST-ScSec2^1-160 (domain or fragment)
chain: MDASEEAKRVSIQVTSLSTQLIESVDKQSHLEEQLNKSLKTIASQKAAIENYNQLKEDYNTLKRELSDRDDEVKRLREDIAKENELRTKAEEEADKLNKEVEDLTASLFDEANNMVADARKEKYAIEILNKRLTEQLREKDTLLDTLTLQLKNLKKVMHS
binding result: binds
